Laboratory results as given in patent US4959351A, “Crystal suspensions of insulin derivatives, processes for their preparation and their use” (Hoescht Aktiengesellschaft, priority 1983, dated 1990).

Assay: Specific biological activity of the insulin substance used (I.U./mg)
Conditions: as stated in the composition

Porcine insulin--Arg^B31 --Arg^B32 --OH [Insulin-Arg^B31 -Arg^B32 -OH from pigs]
specific activity: 27.0 I.U./mg

human insulin--Arg^B31 --Arg^B32 --OH
specific activity: 27.0 I.U./mg

human insulin--Arg^B31 --OH [Human insulin-Arg^B31 -OH]
specific activity: 27.5 I.U./mg

human insulin--Arg^B31 -Lys--^B32 --OCH3 [Human insulin-Arg^B31 -Lys^B31 -OCH3]
specific activity: 27.0 I.U./mg

human insulin-B30-choline ester [human insulin-(B30)-choline ester]
specific activity: 28.0 I.U./mg
